How the values were obtained:
[1] = target: gp120 of HIV-MN strain (HIV strain MN, UniProt P05877); assay: cell-based or functional assay
[2] = target: T1, synthetic PND peptide SP-1 (HIV strain MN) (HIV strain MN); assay: EIA, peptide immobilized on plate (FIG. 4)
T1 peptide: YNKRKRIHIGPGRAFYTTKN

[3] = target: synthetic PND peptide SP-6 (HIV strain NI16-1) (HIV strain NI16-1); assay: EIA, peptide immobilized on plate (FIG. 4)
[4] = target: synthetic PND peptide SP-9 (HIV strain NI23) (HIV strain NI23); assay: EIA, peptide immobilized on plate (FIG. 4)
[5] = target: synthetic PND peptide SP-11 (HIV strain NI54-2) (HIV strain NI54-2); assay: EIA, peptide immobilized on plate (FIG. 4)
[6] = target: synthetic PND peptide SP-12 (HIV strain NI53) (HIV strain NI53); assay: EIA, peptide immobilized on plate (FIG. 4)
[7] = target: synthetic PND peptide SP-20 (HIV strain NI63-2) (HIV strain NI63-2); assay: EIA, peptide immobilized on plate (FIG. 4)
[8] = target: synthetic peptide SP-30 (5 repeats of GPGR); assay: EIA, peptide immobilized on plate (FIG. 4)
[9] = target: T2, hexapeptide Ile-Gly-Pro-Gly-Arg-Ala (HIV strain MN); assay: EIA with overlapped peptides on a solid phase (FIG. 7)
T2 peptide: IGPGRA

[10] = target: T3, hexapeptide Gly-Pro-Gly-Arg-Ala-Phe (HIV strain MN); assay: as above
T3 peptide: GPGRAF

[11] = target: T4, decapeptide IHIGPGRAFY derived from HIV-MN (HIV strain MN); assay: EIA, peptide synthesized on a polyethylene rod (FIG. 6)
T4 peptide: IHIGPGRAFY

[12] = target: decapeptide […] derived from NI53 (HIV strain NI53); assay: as above

B1: monoclonal antibody C25 (antibody, V domains shown)
VH: QVQLQQSGAELVRPGTSVKMFCKAAGYTFTNSWIGWFRQRPGHGLEWIGDIYPGGGYTNYNEIFKGKATLTADTSSSTAYMQLSSLTSEDSAIYYCSRGIPGYAMDYWGQGTSVTVSS
VL: DIVMTQSPSSLTVTAGEKVTMSCKSSQSLLNSGDQKNYLTWYQQKPGQPPKLLIYWASTGESGVPDRFTGSGSETDFTLTISSVQAEDLAVYYCQNDYSYPWTFGGGTKLEIK
In the case of B1, the “minimum effective concentration inhibiting viral infection by 100%” value [1] is reported as 1 µg/mL, the binding result [2] is reported as “binds” and the binding result [3] is reported as “binds”. B1: binds [4]; binds [5]; binds [6]. B1: binds [7]; binds [8]; binds [9]. B1: binds [10]; binds [11]; binds [12].

B2: chimeric C25 antibody (CC25) (antibody, V domains shown)
VH: QVQLQQSGAELVRPGTSVKMFCKAAGYTFTNSWIGWFRQRPGHGLEWIGDIYPGGGYTNYNEIFKGKATLTADTSSSTAYMQLSSLTSEDSAIYYCSRGIPGYAMDYWGQGTSVTVSS
VL: DIVMTQSPSSLTVTAGEKVTMSCKSSQSLLNSGDQKNYLTWYQQKPGQPPKLLIYWASTGESGVPDRFTGSGSETDFTLTISSVQAEDLAVYYCQNDYSYPWTFGGGTKLEIK
B2 was tested, and the “minimum effective concentration inhibiting viral infection by 100%” value [1] was 1 µg/mL.

B3: humanized C25 antibody (RC25) (antibody, V domains shown)
VH: QVQLVQSGAEVKKPGASVKVSCKASGYTFTNSWIGWFRQAPGQGLEWIGDIYPGGGYTNYNEIFKGKATMTADTSTNTAYMELSSLRSEDTAVYYCSRGIPGYAMDYWGQGTLVTVSS
VL: DIQMTQSPSSLSASVGDRVTMSCKSSQSLLNSGDQKNYLTWYQQKPGKAPKLLIYWASTGESGVPSRFSGSGSGTDFTFTISSLQPEDIATYYCQNDYSYPWTFGQGTKVEIK
With B3 the “minimum effective concentration inhibiting viral infection by 100%” value [1] was 1 µg/mL.

Reference: patent US6114143, “Anti-HIV monoclonal antibody” (Juridical Foundation The Chemo-Sero-Therapeutic Research …, dated 2000)
